7 molecules from PMC7820495 can be followed below.

What is called Kd is the free concentration of one partner at which half of the binding sites on the other are occupied at equilibrium, for simple one-to-one binding.

This test concerns the target T1, GST-SVIP (Drosophila SVIP, CG32039), Q8IQC6.
T1 chain: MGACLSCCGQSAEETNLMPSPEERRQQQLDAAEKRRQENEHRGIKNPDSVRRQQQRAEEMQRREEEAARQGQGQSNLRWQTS
The test can be described thus: in vitro binding titration assay. The settings on record: chain shown with the change;; parent: 0.70 uM.

B1: MBP-VCP^N-D1 (Drosophila VCP, N-terminal and first D1 ATPase domain), Q7KN62 P134L (protein)
chain: MADSKGEDLATAILKRKDRPNRLIVEEAQNDDNSVVSLSQAKMDELQLFRGDTVILKGKRRKETVCIVLSDDTCPDEKIRMNRVVRNNLCVHLSDVVSVQSCPDVKYGKRVRILPIDESTEGVTGNLFEIYLKLYFLEAYRPIHMGDNFIVRAAMRPIEFKVVLTDPEPYCIVAPETVIFCDGDPIKREEEEESLNAVGYDDIGGCRKQLAQIKEMVELPLRHPSLFKAIGVKPPRGILMYGPPGTGKTLIARAVANETGAFFFLINGPEIMSKLAGESESNLRKAFEEAEKNSPAIIFIDEIDAIAPKRDKTHGEVERRIVSQLLTLMDGMKKSSHLIVMAATNRPNSIDPALRRFGRFDREIDIGIPDATGRLEVLRIHTKNMKLHDDVDLEQIAAESHGHVGADLASLCSEAALQQIREKMDLIDLEDDKIDAEVLASLAVTMENFRYAMTKSSPSALRETVVEVPNTTWTDIGGLESVKKELQELVQYPVEHPDKFLKFGMQPSRGVLFYGPPGCGKTLLAKAIANECQANFISVKGPELLTMWFGESEANVRDIFDKARSAAPCVLFFDELDSIAKARGGNVGDAGGAADRVINQILTEMDGMGAKKNVFIIGATNRPDIIDPAILRPGRLDQLIYIPLPDDKSREAILKANLRKSPLAKEVDLTYIAKVTQGFSGADLTEICQRACKLAIRQAIEAEIRREKERAENQNSAMDMDEDDPVPEITSAHFEEAMKFARRSVSDNDIRKYEMFAQTLQQSRGFGQNFRFPGQTGNTSGSGNNLPVNSPGDNGDDDLYS
Take B1: the Kd turned out to be 21.6 µM.

B2: MBP-VCP^N-D1 (Drosophila VCP, N-terminal and first D1 ATPase domain), Q7KN62 R188Q (protein)
chain: MADSKGEDLATAILKRKDRPNRLIVEEAQNDDNSVVSLSQAKMDELQLFRGDTVILKGKRRKETVCIVLSDDTCPDEKIRMNRVVRNNLCVHLSDVVSVQSCPDVKYGKRVRILPIDESTEGVTGNLFEIYLKPYFLEAYRPIHMGDNFIVRAAMRPIEFKVVLTDPEPYCIVAPETVIFCDGDPIKQEEEEESLNAVGYDDIGGCRKQLAQIKEMVELPLRHPSLFKAIGVKPPRGILMYGPPGTGKTLIARAVANETGAFFFLINGPEIMSKLAGESESNLRKAFEEAEKNSPAIIFIDEIDAIAPKRDKTHGEVERRIVSQLLTLMDGMKKSSHLIVMAATNRPNSIDPALRRFGRFDREIDIGIPDATGRLEVLRIHTKNMKLHDDVDLEQIAAESHGHVGADLASLCSEAALQQIREKMDLIDLEDDKIDAEVLASLAVTMENFRYAMTKSSPSALRETVVEVPNTTWTDIGGLESVKKELQELVQYPVEHPDKFLKFGMQPSRGVLFYGPPGCGKTLLAKAIANECQANFISVKGPELLTMWFGESEANVRDIFDKARSAAPCVLFFDELDSIAKARGGNVGDAGGAADRVINQILTEMDGMGAKKNVFIIGATNRPDIIDPAILRPGRLDQLIYIPLPDDKSREAILKANLRKSPLAKEVDLTYIAKVTQGFSGADLTEICQRACKLAIRQAIEAEIRREKERAENQNSAMDMDEDDPVPEITSAHFEEAMKFARRSVSDNDIRKYEMFAQTLQQSRGFGQNFRFPGQTGNTSGSGNNLPVNSPGDNGDDDLYS
As to B2, the Kd turned out to be 1.5 µM.

B3: MBP-VCP^N-D1 (Drosophila VCP, N-terminal and first D1 ATPase domain), Q7KN62 R156C (protein)
chain: MADSKGEDLATAILKRKDRPNRLIVEEAQNDDNSVVSLSQAKMDELQLFRGDTVILKGKRRKETVCIVLSDDTCPDEKIRMNRVVRNNLCVHLSDVVSVQSCPDVKYGKRVRILPIDESTEGVTGNLFEIYLKPYFLEAYRPIHMGDNFIVRAAMCPIEFKVVLTDPEPYCIVAPETVIFCDGDPIKREEEEESLNAVGYDDIGGCRKQLAQIKEMVELPLRHPSLFKAIGVKPPRGILMYGPPGTGKTLIARAVANETGAFFFLINGPEIMSKLAGESESNLRKAFEEAEKNSPAIIFIDEIDAIAPKRDKTHGEVERRIVSQLLTLMDGMKKSSHLIVMAATNRPNSIDPALRRFGRFDREIDIGIPDATGRLEVLRIHTKNMKLHDDVDLEQIAAESHGHVGADLASLCSEAALQQIREKMDLIDLEDDKIDAEVLASLAVTMENFRYAMTKSSPSALRETVVEVPNTTWTDIGGLESVKKELQELVQYPVEHPDKFLKFGMQPSRGVLFYGPPGCGKTLLAKAIANECQANFISVKGPELLTMWFGESEANVRDIFDKARSAAPCVLFFDELDSIAKARGGNVGDAGGAADRVINQILTEMDGMGAKKNVFIIGATNRPDIIDPAILRPGRLDQLIYIPLPDDKSREAILKANLRKSPLAKEVDLTYIAKVTQGFSGADLTEICQRACKLAIRQAIEAEIRREKERAENQNSAMDMDEDDPVPEITSAHFEEAMKFARRSVSDNDIRKYEMFAQTLQQSRGFGQNFRFPGQTGNTSGSGNNLPVNSPGDNGDDDLYS
For the molecule B3, the Kd was 1.77 µM.

B4: MBP-VCP^N-D1 (Drosophila VCP, N-terminal and first D1 ATPase domain), Q7KN62 A154R (protein)
chain: MADSKGEDLATAILKRKDRPNRLIVEEAQNDDNSVVSLSQAKMDELQLFRGDTVILKGKRRKETVCIVLSDDTCPDEKIRMNRVVRNNLCVHLSDVVSVQSCPDVKYGKRVRILPIDESTEGVTGNLFEIYLKPYFLEAYRPIHMGDNFIVRARMRPIEFKVVLTDPEPYCIVAPETVIFCDGDPIKREEEEESLNAVGYDDIGGCRKQLAQIKEMVELPLRHPSLFKAIGVKPPRGILMYGPPGTGKTLIARAVANETGAFFFLINGPEIMSKLAGESESNLRKAFEEAEKNSPAIIFIDEIDAIAPKRDKTHGEVERRIVSQLLTLMDGMKKSSHLIVMAATNRPNSIDPALRRFGRFDREIDIGIPDATGRLEVLRIHTKNMKLHDDVDLEQIAAESHGHVGADLASLCSEAALQQIREKMDLIDLEDDKIDAEVLASLAVTMENFRYAMTKSSPSALRETVVEVPNTTWTDIGGLESVKKELQELVQYPVEHPDKFLKFGMQPSRGVLFYGPPGCGKTLLAKAIANECQANFISVKGPELLTMWFGESEANVRDIFDKARSAAPCVLFFDELDSIAKARGGNVGDAGGAADRVINQILTEMDGMGAKKNVFIIGATNRPDIIDPAILRPGRLDQLIYIPLPDDKSREAILKANLRKSPLAKEVDLTYIAKVTQGFSGADLTEICQRACKLAIRQAIEAEIRREKERAENQNSAMDMDEDDPVPEITSAHFEEAMKFARRSVSDNDIRKYEMFAQTLQQSRGFGQNFRFPGQTGNTSGSGNNLPVNSPGDNGDDDLYS
With B4, the Kd was found to be 3.61 µM.

B5: MBP-VCP^N-D1 (Drosophila VCP, N-terminal and first D1 ATPase domain), Q7KN62 L195W (protein)
chain: MADSKGEDLATAILKRKDRPNRLIVEEAQNDDNSVVSLSQAKMDELQLFRGDTVILKGKRRKETVCIVLSDDTCPDEKIRMNRVVRNNLCVHLSDVVSVQSCPDVKYGKRVRILPIDESTEGVTGNLFEIYLKPYFLEAYRPIHMGDNFIVRAAMRPIEFKVVLTDPEPYCIVAPETVIFCDGDPIKREEEEESWNAVGYDDIGGCRKQLAQIKEMVELPLRHPSLFKAIGVKPPRGILMYGPPGTGKTLIARAVANETGAFFFLINGPEIMSKLAGESESNLRKAFEEAEKNSPAIIFIDEIDAIAPKRDKTHGEVERRIVSQLLTLMDGMKKSSHLIVMAATNRPNSIDPALRRFGRFDREIDIGIPDATGRLEVLRIHTKNMKLHDDVDLEQIAAESHGHVGADLASLCSEAALQQIREKMDLIDLEDDKIDAEVLASLAVTMENFRYAMTKSSPSALRETVVEVPNTTWTDIGGLESVKKELQELVQYPVEHPDKFLKFGMQPSRGVLFYGPPGCGKTLLAKAIANECQANFISVKGPELLTMWFGESEANVRDIFDKARSAAPCVLFFDELDSIAKARGGNVGDAGGAADRVINQILTEMDGMGAKKNVFIIGATNRPDIIDPAILRPGRLDQLIYIPLPDDKSREAILKANLRKSPLAKEVDLTYIAKVTQGFSGADLTEICQRACKLAIRQAIEAEIRREKERAENQNSAMDMDEDDPVPEITSAHFEEAMKFARRSVSDNDIRKYEMFAQTLQQSRGFGQNFRFPGQTGNTSGSGNNLPVNSPGDNGDDDLYS
Turning to B5, the Kd was found to be 0.6 µM.

B6: MBP-VCP^N-D1 (Drosophila VCP, N-terminal and first D1 ATPase domain), Q7KN62 A436S (protein)
chain: MADSKGEDLATAILKRKDRPNRLIVEEAQNDDNSVVSLSQAKMDELQLFRGDTVILKGKRRKETVCIVLSDDTCPDEKIRMNRVVRNNLCVHLSDVVSVQSCPDVKYGKRVRILPIDESTEGVTGNLFEIYLKPYFLEAYRPIHMGDNFIVRAAMRPIEFKVVLTDPEPYCIVAPETVIFCDGDPIKREEEEESLNAVGYDDIGGCRKQLAQIKEMVELPLRHPSLFKAIGVKPPRGILMYGPPGTGKTLIARAVANETGAFFFLINGPEIMSKLAGESESNLRKAFEEAEKNSPAIIFIDEIDAIAPKRDKTHGEVERRIVSQLLTLMDGMKKSSHLIVMAATNRPNSIDPALRRFGRFDREIDIGIPDATGRLEVLRIHTKNMKLHDDVDLEQIAAESHGHVGADLASLCSEAALQQIREKMDLIDLEDDKIDSEVLASLAVTMENFRYAMTKSSPSALRETVVEVPNTTWTDIGGLESVKKELQELVQYPVEHPDKFLKFGMQPSRGVLFYGPPGCGKTLLAKAIANECQANFISVKGPELLTMWFGESEANVRDIFDKARSAAPCVLFFDELDSIAKARGGNVGDAGGAADRVINQILTEMDGMGAKKNVFIIGATNRPDIIDPAILRPGRLDQLIYIPLPDDKSREAILKANLRKSPLAKEVDLTYIAKVTQGFSGADLTEICQRACKLAIRQAIEAEIRREKERAENQNSAMDMDEDDPVPEITSAHFEEAMKFARRSVSDNDIRKYEMFAQTLQQSRGFGQNFRFPGQTGNTSGSGNNLPVNSPGDNGDDDLYS
Turning to B6, the Kd was 0.6 µM.

B7: MBP-VCP^N-D1 (Drosophila VCP, N-terminal and first D1 ATPase domain), Q7KN62 N384H (protein)
chain: MADSKGEDLATAILKRKDRPNRLIVEEAQNDDNSVVSLSQAKMDELQLFRGDTVILKGKRRKETVCIVLSDDTCPDEKIRMNRVVRNNLCVHLSDVVSVQSCPDVKYGKRVRILPIDESTEGVTGNLFEIYLKPYFLEAYRPIHMGDNFIVRAAMRPIEFKVVLTDPEPYCIVAPETVIFCDGDPIKREEEEESLNAVGYDDIGGCRKQLAQIKEMVELPLRHPSLFKAIGVKPPRGILMYGPPGTGKTLIARAVANETGAFFFLINGPEIMSKLAGESESNLRKAFEEAEKNSPAIIFIDEIDAIAPKRDKTHGEVERRIVSQLLTLMDGMKKSSHLIVMAATNRPNSIDPALRRFGRFDREIDIGIPDATGRLEVLRIHTKHMKLHDDVDLEQIAAESHGHVGADLASLCSEAALQQIREKMDLIDLEDDKIDAEVLASLAVTMENFRYAMTKSSPSALRETVVEVPNTTWTDIGGLESVKKELQELVQYPVEHPDKFLKFGMQPSRGVLFYGPPGCGKTLLAKAIANECQANFISVKGPELLTMWFGESEANVRDIFDKARSAAPCVLFFDELDSIAKARGGNVGDAGGAADRVINQILTEMDGMGAKKNVFIIGATNRPDIIDPAILRPGRLDQLIYIPLPDDKSREAILKANLRKSPLAKEVDLTYIAKVTQGFSGADLTEICQRACKLAIRQAIEAEIRREKERAENQNSAMDMDEDDPVPEITSAHFEEAMKFARRSVSDNDIRKYEMFAQTLQQSRGFGQNFRFPGQTGNTSGSGNNLPVNSPGDNGDDDLYS
Turning to B7, the Kd was determined as 1.16 µM.
